In the supplement of paper PMC10567573:

B1: SMOC2 (parent)
chain: PALETQPQGDEEDIASRYPTLWTE

Variants of: B1
Experiment: protein stability index of a GFP-peptide fusion (GPS, HEK-293T) (PSI 1-6); higher = more stable
Settings: c terminus: a fixed tail appended
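Also: lentivirally expressed fusions sorted by FACS into six bins by GFP to DsRed ratio, PSI derived from sequencing read proportions per bin multiplied by bin number.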

| Variant | protein stability index |
| --- | --- |
| PALETQPQGDKEDIASRYPTLWTE [E11K] | 3.92 |
| PALETQPQGDVEDIASRYPTLWTE [E11V] | 4.24 |
| PALETQPQGDREDIASRYPTLWTE [E11R] | 3.98 |
| PALETQPQGDMEDIASRYPTLWTE [E11M] | 3.59 |
| PALETQPQGDGEDIASRYPTLWTE [E11G] | 4.04 |
| PALETQPQGDNEDIASRYPTLWTE [E11N] | 4.26 |
| PALETQPQGDAEDIASRYPTLWTE [E11A] | 3.79 |
| PALETQPQGDCEDIASRYPTLWTE [E11C] | 4.43 |
| PALETQPQGDHEDIASRYPTLWTE [E11H] | 3.41 |
| PALETQPQGDWEDIASRYPTLWTE [E11W] | 3.96 |
| PALETQPQGDDEDIASRYPTLWTE [E11D] | 4.21 |
| PALETQPQGDLEDIASRYPTLWTE [E11L] | 3.84 |
| PALETQPQGDTEDIASRYPTLWTE [E11T] | 4.18 |
| PALETQPQGDYEDIASRYPTLWTE [E11Y] | 4.02 |
| PALETQPQGDSEDIASRYPTLWTE [E11S] | 4.38 |
| PALETQPQGDIEDIASRYPTLWTE [E11I] | 3.36 |
| PALETQPQGDQEDIASRYPTLWTE [E11Q] | 4.22 |
| PALETQPQGDPEDIASRYPTLWTE [E11P] | 4.82 |
| PALETQPQGDFEDIASRYPTLWTE [E11F] | 3.95 |
| PALETQPQGDEEAIASRYPTLWTE [D13A] | 4.35 |
| PALETQPQGDESDIASRYPTLWTE [E12S] | 4.46 |
| PALETQPQGDEYDIASRYPTLWTE [E12Y] | 3.75 |
| PALETQPQGDECDIASRYPTLWTE [E12C] | 4.12 |
| PALETQPQGDEHDIASRYPTLWTE [E12H] | 3.74 |

| Variant | protein stability index |
| --- | --- |
| PALETQPQGDENDIASRYPTLWTE [E12N] | 4.11 |
| PALETQPQGDEVDIASRYPTLWTE [E12V] | 3.75 |
| PALETQPQGDEQDIASRYPTLWTE [E12Q] | 4.42 |
| PALETQPQGDETDIASRYPTLWTE [E12T] | 4.34 |
| PALETQPQGDEGDIASRYPTLWTE [E12G] | 2.63 |
| PALETQPQGDELDIASRYPTLWTE [E12L] | 3.68 |
| PALETQPQGDEKDIASRYPTLWTE [E12K] | 3.56 |
| PALETQPQGDEPDIASRYPTLWTE [E12P] | 4.33 |
| PALETQPQGDEFDIASRYPTLWTE [E12F] | 4.2 |
| PALETQPQGDERDIASRYPTLWTE [E12R] | 3.93 |
| PALETQPQGDEDDIASRYPTLWTE [E12D] | 4.41 |
| PALETQPQGDEWDIASRYPTLWTE [E12W] | 3.39 |
| PALETQPQGDEADIASRYPTLWTE [E12A] | 3.94 |
| PALETQPQGDEIDIASRYPTLWTE [E12I] | 3.68 |
| PALETQPQGDEMDIASRYPTLWTE [E12M] | 3.7 |
| PALETQPQYDEEDIASRYPTLWTE [G9Y] | 4.74 |
| PALETQPQVDEEDIASRYPTLWTE [G9V] | 4.87 |
| PALETQPQPDEEDIASRYPTLWTE [G9P] | 4.88 |
| PALETQPQCDEEDIASRYPTLWTE [G9C] | 5.16 |
| PALETQPQMDEEDIASRYPTLWTE [G9M] | 4.76 |
| PALETQPQIDEEDIASRYPTLWTE [G9I] | 4.08 |
| PALETQPQDDEEDIASRYPTLWTE [G9D] | 4.63 |
| PALETQPQWDEEDIASRYPTLWTE [G9W] | 4.62 |
| PALETQPQLDEEDIASRYPTLWTE [G9L] | 4.84 |

| Variant | protein stability index |
| --- | --- |
| PALETQPQSDEEDIASRYPTLWTE [G9S] | 5.09 |
| PALETQPQADEEDIASRYPTLWTE [G9A] | 4.92 |
| PALETQPQEDEEDIASRYPTLWTE [G9E] | 5.22 |
| PALETQPQKDEEDIASRYPTLWTE [G9K] | 4.55 |
| PALETQPQHDEEDIASRYPTLWTE [G9H] | 4.71 |
| PALETQPQRDEEDIASRYPTLWTE [G9R] | 4.34 |
| PALETQPQTDEEDIASRYPTLWTE [G9T] | 4.97 |
| PALETQPQNDEEDIASRYPTLWTE [G9N] | 4.78 |
| PALETQPQFDEEDIASRYPTLWTE [G9F] | 4.89 |
| PALETQPQGKEEDIASRYPTLWTE [D10K] | 3.53 |
| PALETQPQGTEEDIASRYPTLWTE [D10T] | 4.14 |
| PALETQPQGGEEDIASRYPTLWTE [D10G] | 3.68 |
| PALETQPQGEEEDIASRYPTLWTE [D10E] | 4.16 |
| PALETQPQGMEEDIASRYPTLWTE [D10M] | 3.05 |
| PALETQPQGVEEDIASRYPTLWTE [D10V] | 3.69 |
| PALETQPQGFEEDIASRYPTLWTE [D10F] | 3.39 |
| PALETQPQGLEEDIASRYPTLWTE [D10L] | 4.33 |
| PALETQPQGNEEDIASRYPTLWTE [D10N] | 4.49 |
| PALETQPQGQEEDIASRYPTLWTE [D10Q] | 4.41 |
| PALETQPQGHEEDIASRYPTLWTE [D10H] | 3.56 |
| PALETQPQGSEEDIASRYPTLWTE [D10S] | 4.44 |
| PALETQPQGPEEDIASRYPTLWTE [D10P] | 4.6 |
| PALETQPQGAEEDIASRYPTLWTE [D10A] | 4.36 |
| PALETQPQGREEDIASRYPTLWTE [D10R] | 3.86 |

| Variant | protein stability index |
| --- | --- |
| PALETQPQGWEEDIASRYPTLWTE [D10W] | 3.98 |
| PALETQPQGCEEDIASRYPTLWTE [D10C] | 3.36 |
| PALETQPQGYEEDIASRYPTLWTE [D10Y] | 3.51 |
| PALETQPQGIEEDIASRYPTLWTE [D10I] | 3.68 |
| PALETQPMGDEEDIASRYPTLWTE [Q8M] | 4.87 |
| PALETQPPGDEEDIASRYPTLWTE [Q8P] | 4.33 |
| PALETQPHGDEEDIASRYPTLWTE [Q8H] | 4.96 |
| PALETQPVGDEEDIASRYPTLWTE [Q8V] | 5.17 |
| PALETQPLGDEEDIASRYPTLWTE [Q8L] | 4.05 |
| PALETQPDGDEEDIASRYPTLWTE [Q8D] | 5.29 |
| PALETQPGGDEEDIASRYPTLWTE [Q8G] | 3.6 |
| PALETQPEGDEEDIASRYPTLWTE [Q8E] | 5.1 |
| PALETQPCGDEEDIASRYPTLWTE [Q8C] | 5.05 |
| PALETQPRGDEEDIASRYPTLWTE [Q8R] | 4.6 |
| PALETQPNGDEEDIASRYPTLWTE [Q8N] | 5.23 |
| PALETQPIGDEEDIASRYPTLWTE [Q8I] | 5.02 |
| PALETQPKGDEEDIASRYPTLWTE [Q8K] | 3.9 |
| PALETQPYGDEEDIASRYPTLWTE [Q8Y] | 3.89 |
| PALETQPFGDEEDIASRYPTLWTE [Q8F] | 4.48 |
| PALETQPTGDEEDIASRYPTLWTE [Q8T] | 4.86 |
| PALETQPSGDEEDIASRYPTLWTE [Q8S] | 4.74 |
| PALETQPWGDEEDIASRYPTLWTE [Q8W] | 4.16 |
